Measurements as given in paper PMC8010718, “Direct coupling of oligomerization and oligomerization-driven endocytosis of the dopamine transporter to its conformational mechanics and activity” (The Journal of Biological Chemistry, 2021).

B1: YFP- and HA-epitope tagged dopamine transporter (YFP-HA-DAT), wild type [human] / itself (parent)
chain: MSKSKCSVGLMSSVVAPAKEPNAVGPKEVELILVKEQNGVQLTSSTLTNPRQSPVEAQDRETWGKKIDFLLSVIGFAVDLANVWRFPYLCYKNGGGAFLVPYLLFMVIAGMPLFYMELALGQFNREGAAGVWKICPILKGVGFTVILISLYVGFFYNVIIAWALHYLFSSFTTELPWIHCNNSWNSPNCSDAHPGDSSGDSSGLNDTFGTTPAAEYFERGVLHLHQSHGIDDLGPPRWQLTACLVLVIVLLYFSLWKGVKTSGKVVWITATMPYVVLTALLLRGVTLPGAIDGIRAYLSVDFYRLCEASVWIDAATQVCFSLGVGFGVLIAFSSYNKFTNNCYRDAIVTTSINSLTSFSSGFVVFSFLGYMAQKHSVPIGDVAKDGPGLIFIIYPEAIATLPLSSAWAVVFFIMLLTLGIDSAMGGMESVITGLIDEFQLLHRHRELFTLFIVLATFLLSLFCVTNGGIYVFTLLDHFAAGTSILFGVLIEAIGVAWFYGVGQFSDDIQQMTGQRPSLYWRLCWKLVSPCFLLFVVVVSIVTFRPPHYGAYIFPDWANALGWVIATSSMAMVPIYAAYKFCSLPGSFREKLAYAIAPEKDRELVDRGEVRQFTLRHWLKV

Variants of: B1
Assay: SDS-PAGE and immunoblotting with the GFP antibody, quantification of trimer band
Settings: AIM-100 20 μM, 2 h at 37 °C, PAE cells, read off a plot

Variant	screen value (fraction of total)
chain 1 I248F V249T L458F L459G	0.3

Same assay, conditions: AL3 20 μM, 2 h at 37 °C, PAE cells, read off a plot

Variant	screen value (fraction of total)
chain 1 I248F V249T L458F L459G	0.15

Same assay, conditions: AL4 20 μM, 2 h at 37 °C, PAE cells, read off a plot

Variant	screen value (fraction of total)
chain 1 I248F V249T L458F L459G	0.17

Same assay, conditions: AL8 20 μM, 2 h at 37 °C, PAE cells, read off a plot

Variant	screen value (fraction of total)
chain 1 I248F V249T L458F L459G	0.22

Same assay, conditions: vehicle, 2 h at 37 °C, PAE cells, read off a plot

Variant	screen value (fraction of total)
chain 1 I248F V249T L458F L459G	0.17
